In the test the target is T1, calmodulin (Homo sapiens (Human), UniProt P0DP23 2-149).
T1 construct: also called calmodulin-agarose
In words: pull-down of purified protein on calmodulin-agarose; anti-EF-1α immunoblot. (In general: A western blot detects proteins with antibodies after separation by electrophoresis.)

B1: macrophage EF-1α (murine, from RAW 264.7 cells) (other)
chain: GKEKTHINIVVIGHVDSGKSTTTGHLIYKCGGIDKRTIEKFEKEAAEMGKGSFKYAWVLDKLKAERERGITIDISLWKFETSKYYVTIIDAPGHRDFIKNMITGTSQADCAVLIVAAGVGEFEAGISKNGQTREHALLAYTLGVKQLIVGVNKMDSTEPPYSQKRYEEIVKEVSTYIKKIGYNPDTVAFVPISGWNGDNMLEPSANMPWFKGWKVTRKDGSASGTTLLEALDCILPPTRPTDKPLRLPLQDVYKIGGIGTVPVGRVETGVLKPGMVVTFAPVNVTTEVKSVEMHHEALSEALPGDNVGFNVKNVSVKDVRRGNVAGDSKNDPPMEAAGFTAQVIILNHPGQISAGYAPVLDCHTAHIACKFAELKEKIDRRSGKKLEDGPKFLKSGDAAIVDMVPGKPMCVESFSDYPPLGRFAVRDMRQTVAVGVIKAVDKKAAGAGKVTKSAQKAQKAK
notes: also called host EF-1α; host-EF-1α
For B1, the binding result is reported as “binds”.

These data come from patent US20050095247A1 (UNIVERSITY OF BRITISH COLUMBIA, published 2005).
